Results on two substances are retold here after US9416162B2, “Peptides having reduced toxicity that stimulate cholesterol efflux” (The Regents of the University of California, priority 2013, dated 2016).

One series deals with Wistar rats. The series can be described thus: High-dose IV toxicity of ATI-5261 in rats (plasma ALT, AST, TG, unesterified cholesterol). The class given is in vivo, rat. The procedure: Peptides or peptidomimetics of the invention can be evaluated for toxicity using known assays. Examples of such assays are illustrated in the Examples section. Toxicity is typically assayed in a rat, rabbit, mouse, monkey or dog model. In an illustrative assay, such as that described in Example 1, a peptide is administered intravenously using a rabbit or rat model at doses of 3, 30, and 300 mg/kg and vehicle alone is also administered at 48 hour intervals for a total of four injections. Safety chemistry panels including plasma alanine aminotransferase (ALT), aspartate amino transferase (AST), and creatine kinase (CK) can then be determined in the blood. The presence of elevated levels of these enzymes in the blood compared to control normal values is indicative of toxicity. A peptide of the invention is typically considered to be non-toxic or to have little toxicity, when the results using the highest dose, 300 mg/kg in this illustrative assay, are equivalent (fall within the standard deviation) of the values measured for the control animals that received vehicle alone, or are no more than 2 or 3 times background obtained with vehicle alone. In some embodiments, a toxicity assay is performed where the toxicity of a peptide of the invention is compared to that to ATI-5261. […]
Cytotoxicity of an HDL mimetic peptide ATI-5261 at high doses was evaluated in rats and rabbits (FIG. 1). […]

In the next series the test system is cynomolgus monkeys. Briefly: IV infusion toxicity in cynomolgus monkeys (ALT, AST, CPK, bilirubin). In kind it is in vivo, cynomolgus monkey. How it is done: Male (upper panel) and female lower panel) cynomolgus monkeys were administered ATI-5261 at a fixed dose of 100 mg/kg by IV infusion (60 min) every 96 hours for a total of 4 injections. Blood was collected 24 h post infusion and levels of plasma ALT, AST, creatine kinase (CPK), and total and indirect bilirubin were determined Values are expressed as a fold-increase vs. pre-dose levels.

A further series addresses T1, SR-B1 (Rattus norvegicus, UniProt P97943).
T1 construct: endogenous in cells; host or cells: Fu5AH cells
T1 sequence (P97943 1-509): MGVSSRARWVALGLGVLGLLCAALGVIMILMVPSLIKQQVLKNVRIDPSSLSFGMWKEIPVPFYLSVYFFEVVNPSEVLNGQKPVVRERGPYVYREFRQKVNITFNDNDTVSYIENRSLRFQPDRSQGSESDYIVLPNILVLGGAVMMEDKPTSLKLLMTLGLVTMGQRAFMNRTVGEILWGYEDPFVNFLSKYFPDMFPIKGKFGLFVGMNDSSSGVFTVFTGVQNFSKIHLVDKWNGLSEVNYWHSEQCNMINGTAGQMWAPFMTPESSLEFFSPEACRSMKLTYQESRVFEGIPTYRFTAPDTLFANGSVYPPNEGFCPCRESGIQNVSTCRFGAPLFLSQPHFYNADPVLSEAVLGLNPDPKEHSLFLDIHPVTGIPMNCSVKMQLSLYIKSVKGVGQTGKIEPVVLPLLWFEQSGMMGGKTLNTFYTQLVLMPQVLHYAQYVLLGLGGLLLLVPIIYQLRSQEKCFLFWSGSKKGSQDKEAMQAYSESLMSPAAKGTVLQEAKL
Briefly: SR-B1 mediated cholesterol efflux from Fu5AH cells. Conditions: 50 μg peptide/ml serum-free medium. In kind it is cell-based. How it is done: To further evaluate potential anti-atherogenic mechanisms of CS6253, Fu5AH cells labeled with [3H]cholesterol were used in efflux experiments. The citrulline form of LeuATI-5261 (CS6253) lipidated with POPC was used as a cholesterol efflux acceptor at 50 μg peptide/ml serum-free medium. Panel A-Time-course for SR-B1 mediated cholesterol efflux from cells. […] Panel B—Comparison between CS6253 and ATI-5261 in mediating cellular cholesterol efflux via SRB1. [3H]cholesterol labeled Fu5AH cells were incubated with either lipid-free acceptors or acceptors formulated with POPC.

The test system of the next series is apoE−/− mice. Briefly: Atherosclerosis in apoE−/− mice on high-fat western diet, whole aorta Oil-Red O staining. The class given is in vivo, mouse. The procedure: Male apoE^−/− mice at 8 weeks of age were fed a high-fat western diet for 14 weeks. Mice were subsequently randomized to either a control group to receive IP injection of vehicle alone or lipid-free peptide (30 mg/kg) at 48 hour intervals for 6 weeks. […] The extent of whole aorta covered with fatty lesions is shown, determined by Oil-Red O staining. Values are means±SD, n=10 mice per group.
CS6253, another synthesis batch of T5237-4, was administered IP at 10 mg/kg for 10 weeks showing again reduction of substantial atherosclerosis in apoE^−/− mice (FIG. 36). Male apoE^−/− mice at 8 weeks of age were fed a high-fat western diet for 14 weeks. Mice were subsequently randomized to either a control group to receive IP injection of vehicle alone or lipid-free CS6253 (10 mg/kg) at 48 hour intervals for 10 weeks while the mice remained on high-fat western diet. The extent of whole aorta covered with fatty lesions is shown, determined by Oil-Red O staining. Values are means±SD, n=10 mice per group.
CS6253 administered SC also reduce substantial atherosclerosis in apoE KO mice. Male apoE−/− mice at 8 weeks of age were fed a high-fat western diet for 14 weeks (FIG. 37). One group was terminated before treatment start as baseline control. Mice were subsequently randomized to one of 3 arms to receive subcutaneous (SC) injection alternate days for 6 weeks; vehicle alone, CS6253 30 mg/kg or CS6253 60 mg/kg. During the first 4 treatment weeks the mice remained on high-fat western diet while during the last two weeks of treatment they were switched to chow diet. The extent of whole aorta covered with fatty lesions is shown, determined by Oil-Red O staining. Values are means±SD, n=10 mice per group.

Non-standard residues stand in square brackets, D forms with d. No end group written: not given here. Cit = NC(=O)NCCC[C@H](N)C(=O)O

Regarding “ATI-5261: HDL mimetic peptide, parent peptide; triglyceride elevating and muscle toxic peptide used as positive control (EVRSKLEEWFAAFREFAEEFLARLKS) [reference compound]”, the “plasma triglycerides and cholesterol” value in the series on Wistar rats (male Wistar rats, IV 3, 30, 300 mg/kg) was “increased plasma triglycerides and cholesterol”. For the same substance, the “cytotoxic response (plasma ALT and AST)” value in the series with Wistar rats (male chow-fed Wistar rats, IV 3, 30 and 300 mg/kg at 48 h intervals, 4 injections) is “induced a cytotoxic response”. Besides, the “cytotoxic response (ALT, AST, CPK, bilirubin)” value with cynomolgus monkeys (100 mg/kg IV infusion (60 min) every 96 hours, 4 injections, blood 24 h post infusion) was “induced a cytotoxic response”. In the series on cynomolgus monkeys (100 mg/kg IV infusion, after the first infusion, male and female monkeys), the “plasma creatine kinase (CPK), fold-increase vs. pre-dose levels” value is on record as “marked increase”.

With “EVCitSKLEEWLAALCitELAEELLARLKS (SEQ ID NO:2) (EV[Cit]SKLEEWLAAL[Cit]ELAEELLARLKS) [CS6253, citrulline form of LeuATI-5261, R3,14→Citrulline, 26-mer]”, the “SR-B1 mediated cholesterol efflux” value in the series with SR-B1 is on record as “relatively poor activity”. For the same substance, the “extent of whole aorta covered with fatty lesions” value in the series on apoE−/− mice (IP 10 mg/kg at 48 hour intervals for 10 weeks), with apoE−/− mice (IP 30 mg/kg at 48 hour intervals for 6 weeks) and with apoE−/− mice (SC 30 mg/kg or 60 mg/kg alternate days for 6 weeks) was “reduced atherosclerosis” throughout.
